Data from the supplement of paper PMC10567573.

B1: EMID1 (parent)
chain: FTETNNHWPQGPTGPPGPPGPMGP
B2: KCNA4 (parent)
chain: YQSGGRLKRPVNVPFDIFTEEVKF

Variants of: B1
Experiment: protein stability index of a GFP-peptide fusion (GPS, HEK-293T) (PSI 1-6); higher = more stable
Details: c terminus: a fixed tail appended
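Also: lentivirally expressed fusions sorted by FACS into six bins by GFP to DsRed ratio, PSI derived from sequencing read proportions per bin multiplied by bin number.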

Compared with FTETNNHWPQGPTGPYGPPGPMGP, FTETNNHWPQGPTGPCGPPGPMGP is higher in protein stability index: 2.07 for the first, 2.5 for the second.

Compared with FTETNNHWPQGPTGPIGPPGPMGP, FTETNNHWPQGPTGPDGPPGPMGP is higher in protein stability index: 2.33 for the first, 2.56 for the second.

Compared with FTETNNHWPQGPTGPTGPPGPMGP, FTETNNHWPQGPTGPFGPPGPMGP is lower in protein stability index: 2.58 for the first, 2.02 for the second.

First: FTETNNHWPQGPTGPRGPPGPMGP
Second: FTETNNHWPQGPTGPLGPPGPMGP
The protein stability index of the first is higher: 2.52 for the first, 2.14 for the second.

Going from FTETNNHWPQGPTGPSGPPGPMGP to FTETNNHWPQGPTGPVGPPGPMGP, the protein stability index rises from 2.1 to 3.19.

First: FTETNNHWPQGPTGPNGPPGPMGP
Second: FTETNNHWPQGPTGPEGPPGPMGP
The protein stability index of the first is lower: 2.23 for the first, 2.54 for the second.

First: FTETNNHWPQGPTGPGGPPGPMGP
Second: FTETNNHWPQGPTGPAGPPGPMGP
The protein stability index of the first is lower: 2.4 for the first, 2.65 for the second.

Going from FTETNNHWPQGPTGPKGPPGPMGP to FTETNNHWPQGPTGPMGPPGPMGP, the protein stability index rises from 1.83 to 2.47.

Going from FTETNNHWPQGPTGPPGPEGPMGP to FTETNNHWPQGPTGPPGPVGPMGP, the protein stability index falls from 2.19 to 1.89.

First: FTETNNHWPQGPTGPPGPKGPMGP
Second: FTETNNHWPQGPTGPPGPLGPMGP
The protein stability index of the first is lower: 1.94 for the first, 2.41 for the second.

Compared with FTETNNHWPQGPTGPPGPNGPMGP, FTETNNHWPQGPTGPPGPGGPMGP is higher in protein stability index: 1.8 for the first, 2.79 for the second.

First: FTETNNHWPQGPTGPPGPYGPMGP
Second: FTETNNHWPQGPTGPPGPFGPMGP
The protein stability index of the first is lower: 1.36 for the first, 1.79 for the second.

Going from FTETNNHWPQGPTGPPGPIGPMGP to FTETNNHWPQGPTGPPGPSGPMGP, the protein stability index falls from 2.72 to 2.

First: FTETNNHWPQGPTGPPGPDGPMGP
Second: FTETNNHWPQGPTGPPGPMGPMGP
The protein stability index of the first is higher: 2.68 for the first, 1.93 for the second.

Compared with FTETNNHWPQGPTGPPGCPGPMGP, FTETNNHWPQGPTGPPGSPGPMGP is higher in protein stability index: 1.53 for the first, 2.45 for the second.

Going from FTETNNHWPQGPTGPPGNPGPMGP to FTETNNHWPQGPTGPPGQPGPMGP, the protein stability index rises from 1.47 to 1.93.

Compared with FTETNNHWPQGPTGPPGWPGPMGP, FTETNNHWPQGPTGPPGMPGPMGP is lower in protein stability index: 2.55 for the first, 1.68 for the second.

First: FTETNNHWPQGPTGPPGDPGPMGP
Second: FTETNNHWPQGPTGPPGEPGPMGP
The protein stability index of the first is higher: 2.68 for the first, 2.11 for the second.

First: FTETNNHWPQGPTGPPGFPGPMGP
Second: FTETNNHWPQGPTGPPGYPGPMGP
The protein stability index of the first is lower: 2 for the first, 2.33 for the second.

Going from FTETNNHWPQGPTGPPGKPGPMGP to FTETNNHWPQGPTGPPGRPGPMGP, the protein stability index rises from 2.51 to 2.56.

Compared with FTETNNHWPQGPTGPPGLPGPMGP, FTETNNHWPQGPTGPPGGPGPMGP is lower in protein stability index: 2.17 for the first, 1.82 for the second.

First: FTETNNHWPQGPTGPPGIPGPMGP
Second: FTETNNHWPQGPTGPPGVPGPMGP
The protein stability index of the first is lower: 1.93 for the first, 2.37 for the second.

First: FTETNNHWPQGPTGMPGPPGPMGP
Second: FTETNNHWPQGPTGRPGPPGPMGP
The protein stability index of the first is higher: 2.02 for the first, 1.69 for the second.

First: FTETNNHWPQGPTGSPGPPGPMGP
Second: FTETNNHWPQGPTGIPGPPGPMGP
The protein stability index of the first is higher: 2.88 for the first, 2.24 for the second.

Compared with FTETNNHWPQGPTGNPGPPGPMGP, FTETNNHWPQGPTGEPGPPGPMGP is higher in protein stability index: 2.25 for the first, 2.66 for the second.

Going from FTETNNHWPQGPTGQPGPPGPMGP to FTETNNHWPQGPTGLPGPPGPMGP, the protein stability index rises from 2.21 to 2.34.

Compared with FTETNNHWPQGPTGGPGPPGPMGP, FTETNNHWPQGPTGDPGPPGPMGP is lower in protein stability index: 2.44 for the first, 2.15 for the second.

Compared with FTETNNHWPQGPTGHPGPPGPMGP, FTETNNHWPQGPTGCPGPPGPMGP is higher in protein stability index: 2.62 for the first, 2.68 for the second.

Compared with FTETNNHWPQGPTGKPGPPGPMGP, FTETNNHWPQGPTGFPGPPGPMGP is lower in protein stability index: 2.27 for the first, 2.11 for the second.

First: FTETNNHWPQGPTGVPGPPGPMGP
Second: FTETNNHWPQGPTGYPGPPGPMGP
The protein stability index of the first is lower: 1.93 for the first, 2.58 for the second.

In the case of FTETNNHWPQGPTGWPGPPGPMGP, the protein stability index is reported as 1.75.

Variants of: B2
Experiment: as above
Details: c terminus: a fixed tail appended

First: HQSGGRLKRPVNVPFDIFTEEVKF
Second: RQSGGRLKRPVNVPFDIFTEEVKF
The protein stability index of the first is lower: 2.88 for the first, 3.12 for the second.

Going from TQSGGRLKRPVNVPFDIFTEEVKF to EQSGGRLKRPVNVPFDIFTEEVKF, the protein stability index rises from 2.88 to 3.08.

First: GQSGGRLKRPVNVPFDIFTEEVKF
Second: YQSGGRLKRPVNVPFDILTEEVKF
The protein stability index of the first is higher: 3.48 for the first, 2.5 for the second.

First: YQSGGRLKRPVNVPFDIMTEEVKF
Second: YQSGGRLKRPVNVPFDIHTEEVKF
The protein stability index of the first is lower: 2.02 for the first, 2.15 for the second.

Compared with YQSGGRLKRPVNVPFDITTEEVKF, YQSGGRLKRPVNVPFDEFTEEVKF is lower in protein stability index: 2.26 for the first, 2.15 for the second.

First: YQSGGRLKRPVNVPFDVFTEEVKF
Second: YQSGGRLKRPVNVPFDLFTEEVKF
The protein stability index of the first is lower: 1.28 for the first, 2.36 for the second.

Compared with YQSGGRLKRPVNVPFDWFTEEVKF, YQSGGRLKRPVNVPFDGFTEEVKF is lower in protein stability index: 2.99 for the first, 1.91 for the second.

Compared with YQSGGRLKRPVNVPFDDFTEEVKF, YQSGGRLKRPVNVPFDAFTEEVKF is lower in protein stability index: 2.83 for the first, 1.64 for the second.

Going from YQSGGRLKRPVNVPFDCFTEEVKF to YQSGIRLKRPVNVPFDIFTEEVKF, the protein stability index falls from 3.62 to 1.72.

First: YQSGSRLKRPVNVPFDIFTEEVKF
Second: YQSGLRLKRPVNVPFDIFTEEVKF
The protein stability index of the first is higher: 1.81 for the first, 1.49 for the second.

Going from YQSGQRLKRPVNVPFDIFTEEVKF to YQSGCRLKRPVNVPFDIFTEEVKF, the protein stability index falls from 2.08 to 1.73.

First: YQSGFRLKRPVNVPFDIFTEEVKF
Second: YQSGTRLKRPVNVPFDIFTEEVKF
The protein stability index of the first is lower: 1.6 for the first, 2.7 for the second.

First: YQSGGRLKRPVNVIFDIFTEEVKF
Second: YQSGGRLKRPVNVHFDIFTEEVKF
The protein stability index of the first is higher: 3 for the first, 1.86 for the second.

First: YQSGGRLKRPVNVDFDIFTEEVKF
Second: YQSGGRLKRPVNVSFDIFTEEVKF
The protein stability index of the first is higher: 2.28 for the first, 1.9 for the second.

First: YQSGGRLKRPVNYPFDIFTEEVKF
Second: YQSGGRLKRPVNRPFDIFTEEVKF
The protein stability index of the first is lower: 1.88 for the first, 2.25 for the second.

Going from YQSGGRLKRPVNNPFDIFTEEVKF to YQSGGRLKRPVNQPFDIFTEEVKF, the protein stability index rises from 1.2 to 1.66.

YQSGGRLKRPVNVPCDIFTEEVKF showed a protein stability index of 2.41.
